# IntAct's records for PubMed 16499958
# Tests used:
# rabx5_human RABGEF1 [1] = target: rabx5_human RABGEF1 (UniProt Q9UJ41)
# rabx5_human RABGEF1 [2] = target: rabx5_human RABGEF1 (UniProt Q9UJ41); remark: listed apart in the source
effect of a mutation on the interaction (rabx5_human RABGEF1 [1]),effect of a mutation on the interaction (rabx5_human RABGEF1 [2]),Substance
decreasing interaction,,Polyubiquitin-B (Homo sapiens) (from UniProt P0CG47) D58A
,decreasing interaction,Polyubiquitin-B (Homo sapiens) (from UniProt P0CG47) I44A
